Laboratory results reported in patent US20060257938A1, “Method of screening for drugs that block ligand binding to a lipid binding protein” (priority 2005, published 2006).
Where “and” joins values, the source holds several entries; their conditions need not be identical. Equal values may be shown once.

Assays:
Type in all cases: binding
[1] = Probe fluorescence ratio response to arachidonic acid relative to ADIFAB2; conditions: arachidonic acid; response relative to ADIFAB2
Text: (§1) In an alternate preferred embodiment, the protein is rI-FABP that has Ala substituted for Leu at position 72 (rI-FABP-L72A) with the resulting probe named ADIFAB2. […] Other probes useful in embodiments of the invention are shown in Tables 1-6 and are also described in U.S. application Ser. No. 11/085,792, filed Mar. 21, 2005 which is incorporated herein by reference. The indicated substitutions are with reference to the ADIFAB protein of SEQ ID NO: 2.
(§2) ADIFAB2 also has an altered spectral response, making it especially useful for measurements of FFAu in blood samples (Apple et al, Clinical Proteomics, (2004) 1:41-44, U.S. patent application Ser. No. 10/670,958). The wavelengths at the maximum intensities emitted by these fluorescently-labeled I-FABP's in the absence of FFA is about 420 to 480 nm. The emission wavelengths at the maximum intensities emitted by these fluorescently-labeled I-FABP's with FFA bound are between about 495 to 580 nm. Experiments typically involve measuring the fluorescence response within both emission maxima or at wavelengths for which the effect of interfering molecules such as hemoglobin can be eliminated as described in U.S. application Ser. No. 10/670958 and PCT/US2004/030521 and the calculation of the ratio ‘R’ of the two fluorescence intensities. The baseline value for this ratio, measured in the absence of analyte, is designated R0.
(§3) The intensity ratio (“R” value) is determined as follows. The ratio is calculated using the following formula: R=Fλ1/Fλ2 wherein, Fλ1 is the measured fluorescence intensities (intensity of sample with probe present minus intensity of sample without probe present) at wavelength 1 and Fλ2 is the measured fluorescence intensities (intensity of sample with probe present minus intensity of sample without probe present) at wavelength 2. Then, for a given probe, ΔR, the difference in R value between the measurement in the presence of the test compound (agent) and in the absence of the test compound (agent), is calculated as follows: ΔR=R+agent−R0 In some embodiments, the ΔR value may then be compared to some reference, for example, an agent with a known affinity for a given probe, by ΔR/ΔRreference. Measurements of fluorescence intensities are obtained using standard techniques.

[2] = Probe fluorescence ratio response to linolenic acid relative to ADIFAB2; conditions: response relative to ADIFAB2
Text: as §1, §2, §3

[3] = Probe fluorescence ratio response to linoleic acid relative to ADIFAB2; conditions: response relative to ADIFAB2
Text: as §1, §2, §3

[4] = Probe fluorescence ratio response to oleic acid relative to ADIFAB2; conditions: response relative to ADIFAB2
Text: as §1, §2, §3

[5] = Probe fluorescence ratio response to palmitic acid relative to ADIFAB2; conditions: response relative to ADIFAB2
Text: as §1, §2, §3

B1: 119S, 72A (protein, listed as Rattus norvegicus)
chain: AFDGTWKVDRNENYEKFMEKMGINVVKRKLGAHDNLKLTITQEGNKFTVKESSNFRNIDVVFELGVDFAYSAADGTELTGTWTMEGNKLVGKFKRVDNGKELIAVREISGNELIQTYTSEGVEAKRIFKKE
modifications: PEPTIDE (1)...(131) wild-type rat intestinal fatty acid binding protein
DR/DR AA [1]: 0.78 and 0.781 | DR/DR LNA [2]: 0.73 and 0.734 | DR/DR LA [3]: 0.46 and 0.457 | DR/DR OA [4]: 0.71 and 0.714 | DR/DR PA [5]: 0.37 and 0.373

B2: 126H, 72A (protein, listed as Rattus norvegicus)
chain: AFDGTWKVDRNENYEKFMEKMGINVVKRKLGAHDNLKLTITQEGNKFTVKESSNFRNIDVVFELGVDFAYSAADGTELTGTWTMEGNKLVGKFKRVDNGKELIAVREISGNELIQTYTYEGVEAKHIFKKE
modifications: PEPTIDE (1)...(131) wild-type rat intestinal fatty acid binding protein
DR/DR AA [1]: 0.20 | DR/DR LNA [2]: 0.46 | DR/DR LA [3]: 0.46 | DR/DR OA [4]: 0.43 | DR/DR PA [5]: 0.32

B3: 11C, 72A (protein, listed as Rattus norvegicus)
chain: AFDGTWKVDRCENYEKFMEKMGINVVKRKLGAHDNLKLTITQEGNKFTVKESSNFRNIDVVFELGVDFAYSAADGTELTGTWTMEGNKLVGKFKRVDNGKELIAVREISGNELIQTYTYEGVEAKRIFKKE
modifications: PEPTIDE (1)...(131) wild-type rat intestinal fatty acid binding protein
DR/DR AA [1]: 0.52 | DR/DR LNA [2]: 0.64 | DR/DR LA [3]: 0.70 | DR/DR OA [4]: 0.70 | DR/DR PA [5]: 0.80

B4: 126E, 72A (protein, listed as Rattus norvegicus)
chain: AFDGTWKVDRNENYEKFMEKMGINVVKRKLGAHDNLKLTITQEGNKFTVKESSNFRNIDVVFELGVDFAYSAADGTELTGTWTMEGNKLVGKFKRVDNGKELIAVREISGNELIQTYTYEGVEAKEIFKKE
modifications: PEPTIDE (1)...(131) wild-type rat intestinal fatty acid binding protein
DR/DR AA [1]: 0.25 | DR/DR LNA [2]: 0.32 | DR/DR LA [3]: 0.34 | DR/DR OA [4]: 0.30 | DR/DR PA [5]: 0.21

B5: 126D, 72A (protein, listed as Rattus norvegicus)
chain: AFDGTWKVDRNENYEKFMEKMGINVVKRKLGAHDNLKLTITQEGNKFTVKESSNFRNIDVVFELGVDFAYSAADGTELTGTWTMEGNKLVGKFKRVDNGKELIAVREISGNELIQTYTYEGVEAKDIFKKE
modifications: PEPTIDE (1)...(131) wild-type rat intestinal fatty acid binding protein
DR/DR AA [1]: 0.44 | DR/DR LNA [2]: 0.56 | DR/DR LA [3]: 0.59 | DR/DR OA [4]: 0.64 | DR/DR PA [5]: 0.37

B6: 11Y1, 72A (protein, listed as Rattus norvegicus)
chain: AFDGTWKVDRYENYEKFMEKMGINVVKRKLGAHDNLKLTITQEGNKFTVKESSNFRNIDVVFELGVDFAYSAADGTELTGTWTMEGNKLVGKFKRVDNGKELIAVREISGNELIQTYTYEGVEAKRIFKKE
modifications: PEPTIDE (1)...(131) wild-type rat intestinal fatty acid binding protein
DR/DR AA [1]: 0.52 | DR/DR LNA [2]: 0.31 | DR/DR LA [3]: 0.33 | DR/DR OA [4]: 0.16 | DR/DR PA [5]: 0.30

B7: 102H, 72A (protein, listed as Rattus norvegicus)
chain: AFDGTWKVDRNENYEKFMEKMGINVVKRKLGAHDNLKLTITQEGNKFTVKESSNFRNIDVVFELGVDFAYSAADGTELTGTWTMEGNKLVGKFKRVDNGKEHIAVREISGNELIQTYTYEGVEAKRIFKKE
modifications: PEPTIDE (1)...(131) wild-type rat intestinal fatty acid binding protein
DR/DR AA [1]: 0.52 | DR/DR LNA [2]: 0.63 | DR/DR LA [3]: 0.65 | DR/DR OA [4]: 0.66 | DR/DR PA [5]: 0.37

B8: 11G, 72A (protein, listed as Rattus norvegicus)
chain: AFDGTWKVDRGENYEKFMEKMGINVVKRKLGAHDNLKLTITQEGNKFTVKESSNFRNIDVVFELGVDFAYSAADGTELTGTWTMEGNKLVGKFKRVDNGKELIAVREISGNELIQTYTYEGVEAKRIFKKE
modifications: PEPTIDE (1)...(131) wild-type rat intestinal fatty acid binding protein
DR/DR AA [1]: 0.63 | DR/DR LNA [2]: 0.67 | DR/DR LA [3]: 0.70 | DR/DR OA [4]: 0.62 | DR/DR PA [5]: 0.61

B9: 119T, 72A (protein, listed as Rattus norvegicus)
chain: AFDGTWKVDRNENYEKFMEKMGINVVKRKLGAHDNLKLTITQEGNKFTVKESSNFRNIDVVFELGVDFAYSAADGTELTGTWTMEGNKLVGKFKRVDNGKELIAVREISGNELIQTYTTEGVEAKRIFKKE
modifications: PEPTIDE (1)...(131) wild-type rat intestinal fatty acid binding protein
DR/DR AA [1]: 1.22 | DR/DR LNA [2]: 1.21 | DR/DR LA [3]: 1.22 | DR/DR OA [4]: 1.26 | DR/DR PA [5]: 0.79

B10: 102G, 72A (protein, listed as Rattus norvegicus)
chain: AFDGTWKVDRNENYEKFMEKMGINVVKRKLGAHDNLKLTITQEGNKFTVKESSNFRNIDVVFELGVDFAYSAADGTELTGTWTMEGNKLVGKFKRVDNGKEGIAVREISGNELIQTYTYEGVEAKRIFKKE
modifications: PEPTIDE (1)...(131) wild-type rat intestinal fatty acid binding protein
DR/DR AA [1]: 0.63 | DR/DR LNA [2]: 0.38 | DR/DR LA [3]: 0.78 | DR/DR OA [4]: 0.65 | DR/DR PA [5]: 0.36

B11: 126F, 72A (protein, listed as Rattus norvegicus)
chain: AFDGTWKVDRNENYEKFMEKMGINVVKRKLGAHDNLKLTITQEGNKFTVKESSNFRNIDVVFELGVDFAYSAADGTELTGTWTMEGNKLVGKFKRVDNGKELIAVREISGNELIQTYTYEGVEAKFIFKKE
modifications: PEPTIDE (1)...(131) wild-type rat intestinal fatty acid binding protein
DR/DR AA [1]: 0.52 | DR/DR LNA [2]: 0.53 | DR/DR LA [3]: 0.51 | DR/DR OA [4]: 0.43 | DR/DR PA [5]: 0.34

B12: 119V, 72A (protein, listed as Rattus norvegicus)
chain: AFDGTWKVDRNENYEKFMEKMGINVVKRKLGAHDNLKLTITQEGNKFTVKESSNFRNIDVVFELGVDFAYSAADGTELTGTWTMEGNKLVGKFKRVDNGKELIAVREISGNELIQTYTVEGVEAKRIFKKE
modifications: PEPTIDE (1)...(131) wild-type rat intestinal fatty acid binding protein
DR/DR AA [1]: 0.99 and 0.750 | DR/DR LNA [2]: 1.00 and 0.710 | DR/DR LA [3]: 1.01 and 0.720 | DR/DR OA [4]: 1.02 and 0.780 | DR/DR PA [5]: 0.57 and 0.480

B13: 126A, 72A (protein, listed as Rattus norvegicus)
chain: AFDGTWKVDRNENYEKFMEKMGINVVKRKLGAHDNLKLTITQEGNKFTVKESSNFRNIDVVFELGVDFAYSAADGTELTGTWTMEGNKLVGKFKRVDNGKELIAVREISGNELIQTYTYEGVEAKAIFKKE
modifications: PEPTIDE (1)...(131) wild-type rat intestinal fatty acid binding protein
DR/DR AA [1]: 1.27 | DR/DR LNA [2]: 1.36 | DR/DR LA [3]: 1.32 | DR/DR OA [4]: 1.38 | DR/DR PA [5]: 1.22

B14: 102F, 72A (protein, listed as Rattus norvegicus)
chain: AFDGTWKVDRNENYEKFMEKMGINVVKRKLGAHDNLKLTITQEGNKFTVKESSNFRNIDVVFELGVDFAYSAADGTELTGTWTMEGNKLVGKFKRVDNGKEFIAVREISGNELIQTYTYEGVEAKRIFKKE
modifications: PEPTIDE (1)...(131) wild-type rat intestinal fatty acid binding protein
DR/DR AA [1]: 0.95 and 0.858 | DR/DR LNA [2]: 0.53 and 0.588 | DR/DR LA [3]: 0.73 and 0.657 | DR/DR OA [4]: 0.64 and 0.554 | DR/DR PA [5]: 0.43 and 0.369

B15: 11Y1, L72A (protein, listed as Rattus norvegicus)
chain: AFDGTWKVDRYENYEKFMEKMGINVVKRKLGAHDNLKLTITQEGNKFTVKESSNFRNIDVVFELGVDFAYSAADGTELTGTWTMEGNKLVGKFKRVDNGKELIAVREISGNELIQTYTYEGVEAKRIFKKE
modifications: PEPTIDE (1)...(131) wild-type rat intestinal fatty acid binding protein
DR/DR AA [1]: 0.49 | DR/DR LNA [2]: 0.33 | DR/DR LA [3]: 0.32 | DR/DR OA [4]: 0.16 | DR/DR PA [5]: 0.25
